This assay concerns the target N-protein of the wild-type Cne PRP8 S0 split mini-intein with C1A, maltose-binding protein fused to N-intein (MI^A N) (Cryptococcus neoformans). Description: SPR; Biacore T100; N-proteins (WTNa, ENa) immobilised on a CM5 chip; C-terminal fusion proteins flowed at different concentrations in 10 mM HEPES, 150 mM NaCl, 1 mM EDTA, pH 7.4; KD = kd/ka. For orientation: Surface plasmon resonance follows binding to a sensor surface in real time, without labels.

For orientation: Kd means the constant that tells how readily two partners part at equilibrium. The low end stands for higher affinity, the high end for lower affinity. As a reminder, the koff is the rate constant with which the complex falls apart. A higher koff goes with a short-lived complex. A word on the kon: it is the second-order rate constant of association. “C-protein of the wild-type Cne PRP8 S0 split mini-intein with N185A, C-intein fused to thioredoxin (I^A CT) (domain or fragment)” yielded a Ka of 608000 M⁻¹, a Kd of 1.65 µM, a koff of 0.0082 s⁻¹ and an association rate constant (kon) of 4990 M⁻¹ s⁻¹.

Source of the values: PMC10448054.
